Test results published in patent publication US5866124.

Target: murine anti-HMW-MAA monoclonal antibody 763.74
Test: ELISA on plates coated with MAb 763.74, culture supernatant, detected with alkaline phosphatase-conjugated anti-human γ

A405: 0.78 A405
B1: chimeric antiidiotypic monoclonal antibody MK2-CHγ1 (antibody, V domains shown)
VH: LQESGGGLVQPGGSRKLSCAASGFTFSSFGMHWVRQAPEKGLEWVAYISSDSSNIYYADTVKGRFTISRDNPKNTLFLQMTSLRSEDTAMYYCARSNYVGYHVRWYFDVWGQGTTVT
VL: QLTQSPASLAVSLGQRVTISCRASESVEYYGSSLMQWYQQKPGQPPKLLIYAASNVESGVPARFSGSGSGTDFSLNIHPVEEDDIAMYFCQQSRKIPYTFGGGTKLEI
